{"source": "patent US10064926B2", "about": "“Peptides and combination of peptides for use in immunotherapy against hepatocellular carcinoma (HCC) and other cancers” (Immatics biotechnologies GmbH, priority 2014, dated 2018)", "data": [{"target": "HLA-A*02 (Homo sapiens, UniProt P04439, D140Y/D185E/D98H/E176V/E277Q/G131W/G231S/I119V/I121R/I166T/I218V/N151K/N90K/P208A/P217A/Q86G/Q94H/R138H/R169H)", "test": "UV-ligand exchange / peptide binding to MHC class I (beta2m ELISA)", "details": "Table 10A; peptide exchange yield, UV-ligand exchange, β2m ELISA", "excerpt": "(§1) Candidate peptides for T cell based therapies according to the present invention were further tested for their MHC binding capacity (affinity). The individual peptide-MHC complexes were produced by UV-ligand exchange, where a UV-sensitive peptide is cleaved upon UV-irradiation, and exchanged with the peptide of interest as analyzed. Only peptide candidates that can effectively bind and stabilize the peptide-receptive MHC molecules prevent dissociation of the MHC complexes. To determine the yield of the exchange reaction, an ELISA was performed based on the detection of the light chain (β2m) of stabilized MHC complexes. The assay was performed as generally described in Rodenko et al. (Rodenko B, Toebes M, Hadrup S R, van Esch W J, Molenaar A M, Schumacher T N, Ovaa H. Generation of peptide-MHC class I complexes through UV-mediated ligand exchange. Nat Protoc. 2006; 1(3):1120-32).\n(§2) 96 well MAXISorp plates (NUNC) were coated over night with 2 ug/ml streptavidin in PBS at room temperature, washed 4× and blocked for 1 h at 37° C. in 2% BSA containing blocking buffer. Refolded HLA-A*0201/MLA-001 monomers served as standards, covering the range of 15-500 ng/ml. Peptide-MHC monomers of the UV-exchange reaction were diluted 100 fold in blocking buffer. Samples were incubated for 1 h at 37° C., washed four times, incubated with 2 ug/ml HRP conjugated anti-β2m for 1 h at 37° C., washed again and detected with TMB solution that is stopped with […]. Absorption was measured at 450 nm. Candidate peptides that show a high exchange yield (preferably higher than 50%, most preferred higher than 75%) are generally preferred for a generation and production of antibodies or fragments thereof, and/or T cell receptors or fragments thereof, as they show sufficient avidity to the MHC molecules and prevent dissociation of the MHC complexes.", "values": [{"substance": "220 (SLLEKELESV; listed as Homo sapiens) [compound 220]", "Peptide exchange (MHC class I binding score)": "+++ (50%-75% = +++)"}, {"substance": "221 (ALCEENMRGV; listed as Homo sapiens) [compound 221]", "Peptide exchange (MHC class I binding score)": "+++ (50%-75% = +++)"}, {"substance": "223 (FLFNTENKLLL; listed as Homo sapiens) [compound 223]", "Peptide exchange (MHC class I binding score)": "++++ (>=75% = ++++)"}]}, {"target": "HLA-A*02 (Homo sapiens, UniProt P04439, D140Y/D185E/D98H/E176V/E277Q/G131W/G231S/I119V/I121R/I166T/I218V/N151K/N90K/P208A/P217A/Q86G/Q94H/R138H/R169H)", "test": "UV-ligand exchange / peptide binding to MHC class I (beta2m ELISA)", "details": "Table 10B; peptide exchange yield; HLA-A*02 peptides", "excerpt": "as §1, §2", "values": [{"substance": "133 (ALLEMDARL; listed as Homo sapiens) [compound 133]", "Peptide exchange (MHC class I binding score)": "“+++” (≥50 = +++)"}, {"substance": "134 (ALLETNPYLL; listed as Homo sapiens) [compound 134]", "Peptide exchange (MHC class I binding score)": "“++++” (≥75% = ++++)"}, {"substance": "135 (ALLGKIEKV; listed as Homo sapiens) [compound 135]", "Peptide exchange (MHC class I binding score)": "“+++” (≥50 = +++)"}, {"substance": "136 (ALLNQHYQV; listed as Homo sapiens) [compound 136]", "Peptide exchange (MHC class I binding score)": "“+++” (≥50 = +++)"}, {"substance": "137 (ALPTVLVGV; listed as Homo sapiens) [compound 137]", "Peptide exchange (MHC class I binding score)": "“++++” (≥75% = ++++)"}, {"substance": "138 (ALSQVTLLL; listed as Homo sapiens) [compound 138]", "Peptide exchange (MHC class I binding score)": "“++++” (≥75% = ++++)"}, {"substance": "139 (ALSSKPAEV; listed as Homo sapiens) [compound 139]", "Peptide exchange (MHC class I binding score)": "“+++” (≥50 = +++)"}, {"substance": "140 (ALTSISAGV; listed as Homo sapiens) [compound 140]", "Peptide exchange (MHC class I binding score)": "“++++” (≥75% = ++++)"}, {"substance": "141 (AMGEKSFSV; listed as Homo sapiens) [compound 141]", "Peptide exchange (MHC class I binding score)": "“++++” (≥75% = ++++)"}, {"substance": "142 (AVIGGLIYV; listed as Homo sapiens) [compound 142]", "Peptide exchange (MHC class I binding score)": "“++++” (≥75% = ++++)"}, {"substance": "145 (FLIAEYFEHV; listed as Homo sapiens) [compound 145]", "Peptide exchange (MHC class I binding score)": "“++” (≥20% = ++)"}, {"substance": "146 (FLWTEQAHTV; listed as Homo sapiens) [compound 146]", "Peptide exchange (MHC class I binding score)": "“++” (≥20% = ++)"}, {"substance": "147 (GLAPGGLAVV; listed as Homo sapiens) [compound 147]", "Peptide exchange (MHC class I binding score)": "“+++” (≥50 = +++)"}, {"substance": "148 (GLFAPLVFL; listed as Homo sapiens) [compound 148]", "Peptide exchange (MHC class I binding score)": "“++++” (≥75% = ++++)"}, {"substance": "149 (GLLSGLDIMEV; listed as Homo sapiens) [compound 149]", "Peptide exchange (MHC class I binding score)": "“++++” (≥75% = ++++)"}, {"substance": "150 (GLSNLGIKSI; listed as Homo sapiens) [compound 150]", "Peptide exchange (MHC class I binding score)": "“++++” (≥75% = ++++)"}, {"substance": "151 (HLAKVTAEV; listed as Homo sapiens) [compound 151]", "Peptide exchange (MHC class I binding score)": "“+++” (≥50 = +++)"}, {"substance": "152 (KLDNNLDSV; listed as Homo sapiens) [compound 152]", "Peptide exchange (MHC class I binding score)": "“+++” (≥50 = +++)"}, {"substance": "154 (KLTDHLKYV; listed as Homo sapiens) [compound 154]", "Peptide exchange (MHC class I binding score)": "“+++” (≥50 = +++)"}, {"substance": "156 (LLFPHPVNQV; listed as Homo sapiens) [compound 156]", "Peptide exchange (MHC class I binding score)": "“++++” (≥75% = ++++)"}, {"substance": "157 (QLLPNLRAV; listed as Homo sapiens) [compound 157]", "Peptide exchange (MHC class I binding score)": "“+++” (≥50 = +++)"}, {"substance": "158 (RIISGLVKV; listed as Homo sapiens) [compound 158]", "Peptide exchange (MHC class I binding score)": "“++” (≥20% = ++)"}, {"substance": "159 (RLFPDGIVTV; listed as Homo sapiens) [compound 159]", "Peptide exchange (MHC class I binding score)": "“+++” (≥50 = +++)"}, {"substance": "160 (RLLAKIICL; listed as Homo sapiens) [compound 160]", "Peptide exchange (MHC class I binding score)": "“++” (≥20% = ++)"}, {"substance": "161 (RLLDEQFAV; listed as Homo sapiens) [compound 161]", "Peptide exchange (MHC class I binding score)": "“+++” (≥50 = +++)"}, {"substance": "162 (RLMSALTQV; listed as Homo sapiens) [compound 162]", "Peptide exchange (MHC class I binding score)": "“++” (≥20% = ++)"}, {"substance": "163 (RLTESVLYL; listed as Homo sapiens) [compound 163]", "Peptide exchange (MHC class I binding score)": "“+++” (≥50 = +++)"}, {"substance": "164 (RMLIKLLEV; listed as Homo sapiens) [compound 164]", "Peptide exchange (MHC class I binding score)": "“+++” (≥50 = +++)"}, {"substance": "165 (RVIEHVEQV; listed as Homo sapiens) [compound 165]", "Peptide exchange (MHC class I binding score)": "“++++” (≥75% = ++++)"}, {"substance": "166 (SILDIVTKV; listed as Homo sapiens) [compound 166]", "Peptide exchange (MHC class I binding score)": "“+++” (≥50 = +++)"}, {"substance": "167 (SLAESSFDV; listed as Homo sapiens) [compound 167]", "Peptide exchange (MHC class I binding score)": "“+++” (≥50 = +++)"}, {"substance": "168 (SLAVLVPIV; listed as Homo sapiens) [compound 168]", "Peptide exchange (MHC class I binding score)": "“+++” (≥50 = +++)"}, {"substance": "169 (SLFEWFHPL; listed as Homo sapiens) [compound 169]", "Peptide exchange (MHC class I binding score)": "“+++” (≥50 = +++)"}, {"substance": "170 (SLHNGVIQL; listed as Homo sapiens) [compound 170]", "Peptide exchange (MHC class I binding score)": "“+++” (≥50 = +++)"}, {"substance": "171 (SLIPAVLTV; listed as Homo sapiens) [compound 171]", "Peptide exchange (MHC class I binding score)": "“+++” (≥50 = +++)"}, {"substance": "172 (SLLNFLQHL; listed as Homo sapiens) [compound 172]", "Peptide exchange (MHC class I binding score)": "“+++” (≥50 = +++)"}, {"substance": "173 (SLTSEIHFL; listed as Homo sapiens) [compound 173]", "Peptide exchange (MHC class I binding score)": "“+++” (≥50 = +++)"}, {"substance": "174 (TLAELGAVQV; listed as Homo sapiens) [compound 174]", "Peptide exchange (MHC class I binding score)": "“+++” (≥50 = +++)"}, {"substance": "175 (TLFEHLPHI; listed as Homo sapiens) [compound 175]", "Peptide exchange (MHC class I binding score)": "“+++” (≥50 = +++)"}, {"substance": "176 (TLGQIWDV; listed as Homo sapiens) [compound 176]", "Peptide exchange (MHC class I binding score)": "“++++” (≥75% = ++++)"}, {"substance": "177 (VLDEPYEKV; listed as Homo sapiens) [compound 177]", "Peptide exchange (MHC class I binding score)": "“+++” (≥50 = +++)"}, {"substance": "178 (YIFTTPKSV; listed as Homo sapiens) [compound 178]", "Peptide exchange (MHC class I binding score)": "“+++” (≥50 = +++)"}, {"substance": "179 (YIHNILYEV; listed as Homo sapiens) [compound 179]", "Peptide exchange (MHC class I binding score)": "“++++” (≥75% = ++++)"}, {"substance": "180 (YLGPHIASVTL; listed as Homo sapiens) [compound 180]", "Peptide exchange (MHC class I binding score)": "“+++” (≥50 = +++)"}, {"substance": "181 (YLLEKFVAV; listed as Homo sapiens) [compound 181]", "Peptide exchange (MHC class I binding score)": "“+++” (≥50 = +++)"}, {"substance": "182 (YLLHFPMAL; listed as Homo sapiens) [compound 182]", "Peptide exchange (MHC class I binding score)": "“+++” (≥50 = +++)"}, {"substance": "183 (YLYNNEEQVGL; listed as Homo sapiens) [compound 183]", "Peptide exchange (MHC class I binding score)": "“++” (≥20% = ++)"}, {"substance": "184 (VVLDGGQIVTV; listed as Homo sapiens) [compound 184]", "Peptide exchange (MHC class I binding score)": "“+++” (≥50 = +++)"}, {"substance": "185 (ALFPALRPGGFQA; listed as Homo sapiens) [compound 185]", "Peptide exchange (MHC class I binding score)": "“+++” (≥50 = +++)"}, {"substance": "186 (VLLAQIIQV; listed as Homo sapiens) [compound 186]", "Peptide exchange (MHC class I binding score)": "“+++” (≥50 = +++)"}, {"substance": "220 (SLLEKELESV; listed as Homo sapiens) [compound 220]", "Peptide exchange (MHC class I binding score)": "“+++” (≥50 = +++)"}, {"substance": "221 (ALCEENMRGV; listed as Homo sapiens) [compound 221]", "Peptide exchange (MHC class I binding score)": "“+++” (≥50 = +++)"}, {"substance": "222 (LTDITKGV; listed as Homo sapiens) [compound 222]", "Peptide exchange (MHC class I binding score)": "“++” (≥20% = ++)"}, {"substance": "223 (FLFNTENKLLL; listed as Homo sapiens) [compound 223]", "Peptide exchange (MHC class I binding score)": "“++++” (≥75% = ++++)"}, {"substance": "229 (KMFESFIESV; listed as Homo sapiens) [compound 229]", "Peptide exchange (MHC class I binding score)": "“+++” (≥50 = +++)"}, {"substance": "231 (RLFNDPVAMV; listed as Homo sapiens) [compound 231]", "Peptide exchange (MHC class I binding score)": "“++++” (≥75% = ++++)"}, {"substance": "233 (ALLGKLDAI; listed as Homo sapiens) [compound 233]", "Peptide exchange (MHC class I binding score)": "“++++” (≥75% = ++++)"}]}]}
